Changes are numbered by the printed parent chain. Each block holds one binder with its values, some of them ahead of it.
Assays:
BSA = target: T1, BSA (bovine, UniProt P02769 25-607); test: ELISA
T1 construct: also called bovine serum albumin
Protocol: (§1) To select antibody clones that bind to human TFPI, Fab genes of the phage clones from the second and third round of panning were subcloned into a bacterial expression vector and expressed in E. coli strain TG1. The bacterial lysate was added to the wells of the human TFPI-coated Maxisorp plates. After washing, HRP-conjugated goat anti-human Fab was used as a detection antibody and the plates were developed by adding AmplexRed (Invitrogen) with hydrogen peroxide. A signal of at least five-fold higher than the background was considered as positive. The cross reactivity of the anti-human TFPI antibodies to mouse TFPI was determined by a similar mouse TFPI-binding ELISA. The plates were coated with mouse TFPI (R&D System), BSA and lysozyme. The later two antigens were used as negative controls.

[1] = target: T2, human tissue factor pathway inhibitor (TFPI) (human, UniProt P10646 29-304, limits assumed); test: ELISA, Fab on coated TFPI
T2 construct: Bought protein; also called human TFPI; hTFPI
T2 sequence (looked up): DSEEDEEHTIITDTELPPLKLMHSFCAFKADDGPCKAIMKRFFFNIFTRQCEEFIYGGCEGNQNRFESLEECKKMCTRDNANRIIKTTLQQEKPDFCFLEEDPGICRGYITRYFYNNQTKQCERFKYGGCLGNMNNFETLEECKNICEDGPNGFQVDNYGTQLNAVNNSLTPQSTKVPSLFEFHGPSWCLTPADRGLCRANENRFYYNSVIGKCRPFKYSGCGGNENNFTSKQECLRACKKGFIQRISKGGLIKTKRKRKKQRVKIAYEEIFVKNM
Protocol: as §1
(§2) Purified Fab antibodies were used to determine EC₅₀ of anti-TFPI antibodies to human or mouse TFPI. EC₅₀ was assessed in an ELISA, similarly as described above. The results were analyzed using SoftMax. The binding affinity of anti-TFPI antibodies was determined in a Biacore assay. Briefly, the antigen, either human or mouse TFPI, was immobilized on the CM5-chips using the amine coupling kit (GE HealthCare) according to the instructions of the manufacturer. The amount of immobilized TFPI was adjusted to the mass of the antigen to give approximate 300 RU. The antibody Fabs were analyzed in mobile phase and at least five different concentrations (0.1, 0.4, 1.6, 6.4 and 25 nM) of the purified antibodies were used in the Biacore assay. The kinetics and binding affinity were calculated using Biacore T100 Evaluation software.

[2] = target: T2, human tissue factor pathway inhibitor …; test: Biacore, TFPI on CM5 chip, Fab in mobile phase
Protocol: as §2

[3] = target: T2, human tissue factor pathway inhibitor …; test: ELISA, Fab lysate on coated human TFPI
Protocol: as §1

T1 sequence (P02769 25-607 limits assumed): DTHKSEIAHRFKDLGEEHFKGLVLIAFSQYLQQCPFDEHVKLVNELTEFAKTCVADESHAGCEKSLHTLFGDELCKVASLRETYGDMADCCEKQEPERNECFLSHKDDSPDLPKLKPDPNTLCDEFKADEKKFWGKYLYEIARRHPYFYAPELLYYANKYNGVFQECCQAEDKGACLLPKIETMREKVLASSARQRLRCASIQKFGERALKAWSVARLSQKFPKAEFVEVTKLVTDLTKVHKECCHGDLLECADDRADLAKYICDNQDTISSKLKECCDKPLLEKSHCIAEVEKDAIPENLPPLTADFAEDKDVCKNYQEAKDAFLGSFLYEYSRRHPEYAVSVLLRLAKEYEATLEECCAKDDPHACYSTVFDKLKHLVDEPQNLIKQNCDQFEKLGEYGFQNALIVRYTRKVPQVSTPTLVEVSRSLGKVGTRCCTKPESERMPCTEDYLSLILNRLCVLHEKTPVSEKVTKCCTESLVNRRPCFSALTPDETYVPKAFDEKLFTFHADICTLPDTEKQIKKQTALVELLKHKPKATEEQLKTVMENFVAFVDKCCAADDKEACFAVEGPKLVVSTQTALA

- binding result (BSA): no binding
- EC50 [1]: 0.17 nM
- Kd [2]: 7.6 nM
B1: TP-4A9 Fab (Fab, V domains shown)
VH: QVQLVESGGGLVQPGGSLRLSCAASGFTFSSYGMSWVRQAPGKGLEWVSLISGVSSSTYYADSVKGRFTISRDNSKNTLYLQMNSLRAEDTAVYYCARSYLGYFDVWGQGTLVTVSS
VL: DIELTQPPSVSVAPGQTARISCSGDALGKYYASWYQQKPGQAPVLVIYGDNKRPSGIPERFSGSNSGNTATLTISGTQAEDEADYYCQSYTTRSLVFGGGTKLTVLG
notes: Human Fab from HuCal Gold, expressed in E. coli TG1

- binding result (BSA): no binding
- binding result [3]: binds
B4: TP-3A3 Fab (Fab, V domains shown)
VH: QVQLVESGGGLVQPGGSLRLSCAASGFTFNNNAISWVRQAPGKGLEWVSAINSSSSSTSYADSVKGRFTISRDNSKNTLYLQMNSLRAEDTAVYYCARGHHRGHSWASFIDYWGQGTLVTVSS
VL: DIELTQPPSVSVAPGQTARISCSGDNIGSKYVHWYQQKPGQAPVVVIYEDSDRPSGIPERFSGSNSGNTATLTISGTQAEDEADYYCQSWDKSEGYVFGGGTKLTVLG
notes: as for B1

- binding result (BSA): no binding
- binding result [3]: binds
B5: TP-2G2 Fab (Fab, V domains shown)
VH: QVQLVESGGGLVQPGGSLRLSCAASGFTFSSYAMNWVRQAPGKGLEWVSAILSDGSSTSYADSVKGRFTISRDNSKNTLYLQMNSLRAEDTAVYYCARYPDWGWYTDVWGQGTLVTVSS
VL: DIELTQPPSVSVAPGQTARISCSGDNIRKFYVHWYQQKPGQAPVLVIYGTNKRPSGIPERFSGSNSGNTATLTISGTQAEDEADYYCQSYDSKFNTVFGGGTKLTVLG
notes: as for B1

- binding result (BSA): no binding
- binding result [3]: binds
B6: TP-2B9 Fab (Fab, V domains shown)
VH: QVQLQQSGPGLVKPSQTLSLTCAISGDSVSSNSAAWGWIRQSPGRGLEWLGMIYHRSKWYNDYAVSVKSRITINPDTSKNQFSLQLNSVTPEDTAVYYCARYSSIGHMDYWGQGTLVTVSS
VL: DIQMTQSPSSLSASVGDRVTITCRASQSIRSYLAWYQQKPGKAPKLLIYKASNLQSGVPSRFSGSGSGTDFTLTISSLQPEDFAVYYCHQYSDSPVTFGQGTKVEIKR
notes: as for B1

- binding result (BSA): no binding
B10: TP-3F1 Fab (Fab, V domains shown)
VH: QVQLVQSGAEVKKPGESLKISCKGSGYSFTDYWIGWVRQMPGKGLEWMGIIQPSDSDTNYSPSFQGQVTISADKSISTAYLQWSSLKASDTAMYYCARFMWWGKYDSGFDVWGQGTLVTVSS
VL: DIELTQPPSVSVAPGQTARISCSGDNIGSYFASWYQQKPGQAPVLVIYDDSNRPSGIPERFSGSNSGNTATLTISGTQAEDEADYYCEGSNVFGGGTKLTVLG
notes: as for B1

- binding result (BSA): no binding
- binding result [3]: binds
B13: TP-2D7 Fab (Fab, V domains shown)
VH: QVQLQQSGPGLVKPSQTLSLTCAISGDSVSSNSAAWGWIRQSPGRGLEWLGLIYYRSKWYNDYAVSVKSRITINPDTSKNQFSLQLNSVTPEDTAVYYCARFGDTNRNGTDVWGQGTLVTVSS
VL: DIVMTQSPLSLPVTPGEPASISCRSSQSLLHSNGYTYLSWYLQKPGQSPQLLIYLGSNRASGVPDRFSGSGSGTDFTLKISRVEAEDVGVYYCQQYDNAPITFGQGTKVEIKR
notes: as for B1

- binding result (BSA): no binding
- binding result [3]: binds
B14: TP-3C3 Fab (Fab, V domains shown)
VH: B13 VH with L52V, F102A, G103R, D104A, T105K, N106K, R107S, N108G, T110F, V112Y
VL: DIQMTQSPSSLSASVGDRVTITCRASQSINPYLNWYQQKPGKAPKLLIYAASNLQSGVPSRFSGSGSGTDFTLTISSLQPEDFAVYYCQQLDNRSITFGQGTKVEIKR
notes: as for B1

- binding result (BSA): no binding
- binding result [3]: binds
B16: TP-2G4 Fab (Fab, V domains shown)
VH: QVQLVESGGGLVQPGGSLRLSCAASGFTFSSYAMTWVRQAPGKGLEWVSNISYSGSNTYYADSVKGRFTISRDNSKNTLYLQMNSLRAEDTAVYYCARVGYYYGFDYWGQGTLVTVSS
VL: DIELTQPPSVSVAPGQTARISCSGDALRKHYVYWYQQKPGQAPVLVIYGDNNRPSGIPERFSGSNSGNTATLTISGTQAEDEADYYCQSYDKPYPILVFGGGTKLTVLG
notes: as for B1

Further lines, the binder ahead of its results:

B2: TP-2F9 Fab (Fab, V domains shown)
VH: QVQLVESGGGLVQPGGSLRLSCAASGFTFYKYAMHWVRQAPGKGLEWVSGIQYDGSYTYYADSVKGRFTISRDNSKNTLYLQMNSLRAEDTAVYYCARYYCKCVDLWGQGTLVTVSS
VL: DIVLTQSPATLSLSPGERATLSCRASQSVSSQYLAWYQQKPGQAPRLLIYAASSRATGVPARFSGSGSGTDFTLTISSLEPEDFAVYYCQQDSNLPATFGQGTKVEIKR
notes: as for B1
- binding result (BSA): no binding
- binding result [3]: binds

B3: TP-2B8 Fab (Fab, V domains shown)
VH: QVQLVQSGAEVKKPGASVKVSCKASGYTFTGNSMHWVRQAPGQGLEWMGTIFPYDGTTKYAQKFQGRVTMTRDTSISTAYMELSSLRSEDTAVYYCARGVHSYFDYWGQGTLVTVSS
VL: DIELTQPPSVSVAPGQTARISCSGDNLRGYYASWYQQKPGQAPVLVIYEDNNRPSGIPERFSGSNSGNTATLTISGTQAEDEADYYCQSWDSPYVHVFGGGTKLTVLG
notes: as for B1
- binding result (BSA): no binding
- binding result [3]: binds

B7: TP-2E3 Fab (Fab, V domains shown)
VH: B6 VH with H55Y, Y102V, S103N, S104Q, I105Y, G106T, H107S, M108S
VL: DIALTQPASVSGSPGQSITISCTGTSSDIGGYNYVSWYQQHPGKAPKLMIYGVNYRPSGVSNRFSGSKSGNTASLTISGLQAEDEADYYCSSADKFTMSIVFGGGTKLTVLG
notes: as for B1
- binding result (BSA): no binding
- binding result [3]: binds

B8: TP-2B1 Fab (Fab, V domains shown)
VH: QVQLVESGGGLVQPGGSLRLSCAASGFTFSSYSMSWVRQASGKGLEWVSSIKGSGSNTYYADSVKGRFTISRDNSKNTLYLQMNSLRAEDTAVYYCARNGGLIDVWGQGTLVTVSS
VL: DIELTQPPSVSVAPGQTARISCSGDNLGNKYAHWYQQKPGQAPVLVIYYDNKRPSGIPERFSGSNSGNTATLTISGTQAEDEADYYCQSWTPGSNTMVFGGGTRLTVLG
notes: as for B1
- binding result (BSA): no binding
- binding result [3]: binds

B9: TP-2A6 Fab (Fab, V domains shown)
VH: QVQLVESGGGLVQPGGSLRLSCAASGFTFSRYAMSWVRQAPGKGLEWVSSIISSSSETYYADSVKGRFTISRDNSKNTLYLQMNSLRAEDTAVYYCARLMGYGHYYPFDYWGQGTLVTVSS
VL: DIELTQPPSVSVAPGQTARISCSGDKIGSKYVYWYQQKPGQAPVLVIYDSNRPSGIPERFSGSNSGNTATLTISGTQAEDEADYYCASYDSIYSYWVFGGGTKLTVLG
notes: as for B1
- binding result (BSA): no binding
- binding result [3]: binds

B11: TP-3A2 Fab (Fab, V domains shown)
VH: QVQLVESGGGLVQPGGSLRLSCAASGFTFSNYYLSWVRQAPGKGLEWVSGISYNGSSTNYADSVKGRFTISRDNSKNTLYLQMNSLRAEDTAVYYCARMWRYSLGADSWGQGTLVTVSS
VL: DIELTQPPSVSVAPGQTARISCSGDNIGSRYAYWYQQKPGQAPVVVIYDDSDRPSGIPERFSGSNSGNTATLTISGTQAEDEADYYCAAYTFYARTVFGGGTKLTVLG
notes: as for B1
- binding result (BSA): no binding
- binding result [3]: binds

B12: TP-2A10 Fab (Fab, V domains shown)
VH: QVQLVESGGGLVQPGGSLRLSCAASGFTFTSYSMNWVRQAPGKGLEWVSAISYTGSNTHYADSVKGRFTISRDNSKNTLYLQMNSLRAEDTAVYYCARAFLGYKESYFDIWGQGTLVTVSS
VL: DIELTQPPSVSVAPGQTARISCSGDKLGKKYVHWYQQKPGQAPVLVIYGDDKRPSGIPERFSGSNSGNTATLTISGTQAEDEADYYCQAWGSISRFVFGGGTKLTVLG
notes: as for B1
- binding result (BSA): no binding
- binding result [3]: binds

B15: TP-2B4 Fab (Fab, V domains shown)
VH: QVQLVESGGGLVQPGGSLRLSCAASGFTFSNYSMTWVRQAPGKGLEWVSGISYNGSNTYYADSVKGRFTISRDNSKNTLYLQMNSLRAEDTAVYYCARIYYMNLLAGWGQGTLVTVSS
VL: DIELTQPPSVSVAPGQTARISCSGDALGTYYAYWYQQKPGQAPVLVIYGDMNRPSGIPERFSGSNSGNTATLTISGTQAEDEADYYCQSYDAGVKPAVFGGGTKLTVLG
notes: as for B1
- binding result (BSA): no binding
- binding result [3]: binds

B17: TP-3B3 Fab (Fab, V domains shown)
VH: B16 VH with A33G, T35H, S54M, Y59N, V99G, G100L, Y101F, Y102P, Y103G, G104Y
VL: DIELTQPASVSVAPGQTARISCSGDNLRSKYAHWYQQKPGQAPVLVIYGDNNRPSGIPERFSGSNSGNTATLTISGTQAEDEADYYCSAYAMGSSPVFGGGTKLTVLG
notes: as for B1
- binding result (BSA): no binding
- binding result [3]: binds
